Results published in patent US12156920B2, “Double-labeled probe for molecular imaging and use thereof” (Deutsches Krebsforschungszentrum, priority 2017, dated 2024).

Key:
PSMA = biological target: T1, PSMA (Homo sapiens, UniProt Q04609); assay: Competitive cell binding assay on LNCaP cells (PSMA binding affinity); settings: competition against 0.2 nM 68Ga-labeled PSMA-10
T1 construct: endogenous in cells; host or cells: LNCaP cells (ATCC CRL-1740)
Description: PSMA^+ LNCaP cells (ATCC CRL-1740) were cultured in RPMI medium supplemented with 10% fetal calf serum and 2 mmol/L L-glutamine (all from PAA). Cells were grown at 37° C. in humidified air with 5% CO2 and were harvested using trypsin-ethylenediaminetetraacetic acid (trypsin-EDTA; 0.25% trypsin, 0.02% EDTA, Invitrogen).
The competitive cell binding assay and internalization experiments were performed as described previously (4). Briefly, the cells (10^5 per well) were incubated with a 0.2 nM solution of ^68Ga-labeled radioligand [Glu-urea-Lys(Ahx)]2-HBED-CC (PSMA-10, precursor ordered from ABX, Radeberg, Germany) in the presence of 12 different concentrations of analyte (0-5000 nM, 100 μL/well). After incubation, the mixture was removed and the wells were washed 3 times with PBS using a multiscreen vacuum manifold (Millipore, Billerica, Mass.). Cell-bound radioactivity was measured using a gamma counter (Packard Cobra II, GMI, Minnesota, USA). The 50% inhibitory concentration (IC50) values were calculated by fitting the data using a nonlinear regression algorithm (GraphPad Software).

[1] = Biodistribution (organ distribution) of 68Ga-labeled compounds; assay type: in vivo, mice; settings: male, BALB/c nu/nu, mouse, in vivo, iv, 60 pmol, total radioactivity
Description: (§1) The precursor peptides [1 nmol in HEPES buffer (580 mg/ml), 90 μL] were added to 40 μL [^68Ga]Ga^3+ eluate (˜40 MBq). The pH was adjusted to 3.8 using 30% NaOH and 10% NaOH, respectively. The reaction mixture was incubated at 98° C. for 10 minutes. The radiochemical yield (RCY) was determined by HPLC. For the experimental tumor models 5×10^6 cells of LNCaP (in 50% Matrigel; Becton Dickinson, Heidelberg, Germany) were subcutaneously inoculated into the right trunk of 7- to 8-week-old male BALB/c nu/nu mice (Charles River). The tumors were allowed to grow until approximately 1 cm^3 in size. The ^68Ga-labeled compounds were injected into a tail vein (1-2 MBq; 60 pmol). […] Organs of interest were dissected, blotted dry, and weighed. The radioactivity was measured using a gamma counter and calculated as % ID/g. All animal experiments complied with the current laws of the Federal Republic of Germany.

[2] = test system: LNCaP-tumor bearing balb/c nu/nu mice; assay: as above; assay type: in vivo; settings: mouse, in vivo
Description: as §1

[3] = Organ distribution Tumor (tumor accumulation)
[4] = Tumor-to-Organ ratio T/Intestine

T1 sequence (Q04609 whole entry): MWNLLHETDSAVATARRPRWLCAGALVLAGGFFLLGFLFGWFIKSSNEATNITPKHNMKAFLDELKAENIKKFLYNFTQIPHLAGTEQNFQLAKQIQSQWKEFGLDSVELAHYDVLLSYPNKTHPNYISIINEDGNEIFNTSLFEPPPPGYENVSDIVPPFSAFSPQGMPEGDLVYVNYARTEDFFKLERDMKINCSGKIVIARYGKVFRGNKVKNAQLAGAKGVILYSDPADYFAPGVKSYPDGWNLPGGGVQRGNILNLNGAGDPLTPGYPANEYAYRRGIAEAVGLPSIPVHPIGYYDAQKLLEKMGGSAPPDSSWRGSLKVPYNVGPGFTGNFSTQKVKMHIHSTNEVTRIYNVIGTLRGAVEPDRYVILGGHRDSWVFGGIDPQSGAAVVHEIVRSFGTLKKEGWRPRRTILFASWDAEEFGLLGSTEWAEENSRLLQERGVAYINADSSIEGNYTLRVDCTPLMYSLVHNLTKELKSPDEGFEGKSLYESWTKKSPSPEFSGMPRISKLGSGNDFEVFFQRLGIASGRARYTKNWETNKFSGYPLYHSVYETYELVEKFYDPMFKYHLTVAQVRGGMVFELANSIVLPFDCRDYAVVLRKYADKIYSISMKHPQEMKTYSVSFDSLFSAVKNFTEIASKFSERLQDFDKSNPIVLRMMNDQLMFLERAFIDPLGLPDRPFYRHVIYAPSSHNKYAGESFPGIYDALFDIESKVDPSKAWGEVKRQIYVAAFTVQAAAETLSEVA

Structure (SMILES): CC1(C)C(/C=C/C2=C(Oc3ccc(S(=O)(=O)O)cc3)C(=C\C=C3/N(CCCCS(=O)(=O)O)c4ccc(S(=O)(=O)O)cc4C3(C)C)/CCC2)=[N+](CCCCCC(=O)NCCOCCOCCNC(=O)CCc2ccc(O)c(CN(CCN(CC(=O)O)Cc3cc(CCC(=O)NCc4cn(CCCCC(=O)N[C@@H](CCC(=O)O)C(=O)N[C@@H](Cc5cnc[nH]5)C(=O)N[C@@H](CCC(=O)O)C(=O)N[C@@H](Cc5cnc[nH]5)C(=O)N[C@@H](CCC(=O)O)C(=O)N[C@@H](Cc5cnc[nH]5)C(=O)NCCCC[C@H](NC(=O)N[C@@H](CCC(=O)O)C(=O)O)C(=O)O)nn4)ccc3O)CC(=O)O)c2)c2ccc(S(=O)(=O)O)cc21 [PSMA-(HE)3-HBED-CC-PEG2-IRDye800CW, Glu-urea-Lys-(HE)3-HBED-CC-PEG2-IRDye800CW]
- Ki (PSMA): 36.7 ± 9.77 nM
- tissue uptake at 1 h ([1]; Organ distribution Blood): 1.12 %ID/g
- tissue uptake at 2 h ([1]; Organ distribution Blood): 0.65 %ID/g
- tissue uptake at 1 h ([1]; Organ distribution Brain): 0.18 %ID/g
- tissue uptake at 2 h ([1]; Organ distribution Brain): 0.23 %ID/g
- tissue uptake at 1 h ([1]; Organ distribution Heart): 1.36 %ID/g
- tissue uptake at 2 h ([1]; Organ distribution Heart): 0.53 %ID/g
- tissue uptake at 1 h ([1]; Organ distribution Intestine): 1.31 %ID/g
- tissue uptake at 2 h ([1]; Organ distribution Intestine): 0.67 %ID/g
- tissue uptake at 1 h ([1]; Organ distribution Kidney): 109 %ID/g
- tissue uptake at 2 h ([1]; Organ distribution Kidney): 55.8 %ID/g
- tissue uptake at 1 h ([1]; Organ distribution Liver): 1.25 %ID/g
- tissue uptake at 2 h ([1]; Organ distribution Liver): 0.76 %ID/g
- tissue uptake at 1 h ([1]; Organ distribution Lung): 2.34 %ID/g
- tissue uptake at 2 h ([1]; Organ distribution Lung): 0.89 %ID/g
- tissue uptake at 1 h ([1]; Organ distribution Muscle): 1.18 %ID/g
- tissue uptake at 2 h ([1]; Organ distribution Muscle): 0.47 %ID/g
- tissue uptake at 1 h ([1]; Organ distribution Spleen): 3.47 %ID/g
- tissue uptake at 2 h ([1]; Organ distribution Spleen): 0.76 %ID/g
- tissue uptake at 2 h ([1]; Organ distribution Tumor): 3.1 %ID/g
- tissue uptake at 1 h [1, 3]: 7.59 %ID/g
- tissue to tissue ratio at 1 h ([1]; Tumor-to-Organ ratio T/Blood): 6.8
- tissue to tissue ratio at 1 h ([1]; Tumor-to-Organ ratio T/Brain): 42.6
- tissue to tissue ratio at 1 h ([1]; Tumor-to-Organ ratio T/Heart): 5.57
- tissue to tissue ratio at 1 h [1, 4]: 5.8
- tissue to tissue ratio at 1 h ([1]; Tumor-to-Organ ratio T/Kidney): 0.07
- tissue to tissue ratio at 1 h ([1]; Tumor-to-Organ ratio T/Liver): 6.08
- tissue to tissue ratio at 1 h ([1]; Tumor-to-Organ ratio T/Lung): 3.24
- tissue to tissue ratio at 1 h ([1]; Tumor-to-Organ ratio T/Muscle): 6.45
- tissue to tissue ratio at 1 h ([1]; Tumor-to-Organ ratio T/Spleen): 2.19
- Tumor-to-Organ ratio T/Blood [2]: 6.80
- Tumor-to-Organ ratio T/Brain [2]: 42.63
- Tumor-to-Organ ratio T/Heart [2]: 5.57
- Tumor-to-Organ ratio T/Intestine [2]: 5.80
- Tumor-to-Organ ratio T/Kidney [2]: 0.07
- Tumor-to-Organ ratio T/Liver [2]: 6.08
- Tumor-to-Organ ratio T/Lung [2]: 3.24
- Tumor-to-Organ ratio T/Muscle [2]: 6.45
- Tumor-to-Organ ratio T/Spleen [2]: 2.19

Structure (SMILES): CC1(C)C(/C=C/C2=C(Oc3ccc(S(=O)(=O)O)cc3)C(=C\C=C3/N(CCCCS(=O)(=O)O)c4ccc(S(=O)(=O)O)cc4C3(C)C)/CCC2)=[N+](CCCCCC(=O)NCCOCCOCCNC(=O)CCc2ccc(O)c(CN(CCN(CC(=O)O)Cc3cc(CCC(=O)NCc4cn(CCCCC(=O)NC(CCC(=O)O)C(=O)NC(Cc5c[nH]c6ccccc56)C(=O)NCCCCC(NC(=O)NC(CCC(=O)O)C(=O)O)C(=O)O)nn4)ccc3O)CC(=O)O)c2)c2ccc(S(=O)(=O)O)cc21 (stereo not shown) [PSMA-(WE)1-HBED-CC-PEG2-IRDye800CW, Glu-urea-Lys-(WE)1-HBED-CC-PEG2-IRDye800CW]
- tissue uptake at 1 h ([1]; Organ distribution Blood): 1.61 %ID/g
- tissue uptake at 1 h ([1]; Organ distribution Brain): 0.15 %ID/g
- tissue uptake at 1 h ([1]; Organ distribution Heart): 1.49 %ID/g
- tissue uptake at 1 h ([1]; Organ distribution Intestine): 0.96 %ID/g
- tissue uptake at 1 h ([1]; Organ distribution Kidney): 105 %ID/g
- tissue uptake at 1 h ([1]; Organ distribution Liver): 1.73 %ID/g
- tissue uptake at 1 h ([1]; Organ distribution Lung): 2.57 %ID/g
- tissue uptake at 1 h ([1]; Organ distribution Muscle): 1 %ID/g
- tissue uptake at 1 h ([1]; Organ distribution Spleen): 12.9 %ID/g
- tissue uptake at 1 h [1, 3]: 3.85 %ID/g
- tissue to tissue ratio at 1 h ([1]; Tumor-to-Organ ratio T/Blood): 2.39
- tissue to tissue ratio at 1 h ([1]; Tumor-to-Organ ratio T/Brain): 25.6
- tissue to tissue ratio at 1 h ([1]; Tumor-to-Organ ratio T/Heart): 2.59
- tissue to tissue ratio at 1 h [1, 4]: 4.01
- tissue to tissue ratio at 1 h ([1]; Tumor-to-Organ ratio T/Kidney): 0.04
- tissue to tissue ratio at 1 h ([1]; Tumor-to-Organ ratio T/Liver): 2.23
- tissue to tissue ratio at 1 h ([1]; Tumor-to-Organ ratio T/Lung): 1.5
- tissue to tissue ratio at 1 h ([1]; Tumor-to-Organ ratio T/Muscle): 3.86
- tissue to tissue ratio at 1 h ([1]; Tumor-to-Organ ratio T/Spleen): 0.3
